For the test, the target named is IL-12 receptor of human T cells (human) (UniProt P42701). The test is described as follows: cell-based or functional assay.

We go through 1 substance from patent publication US20230295258A1.

IL-12 receptor of human T cells (human), sequence (Q99665 24-862, chain 2 of 2, other chains not shown): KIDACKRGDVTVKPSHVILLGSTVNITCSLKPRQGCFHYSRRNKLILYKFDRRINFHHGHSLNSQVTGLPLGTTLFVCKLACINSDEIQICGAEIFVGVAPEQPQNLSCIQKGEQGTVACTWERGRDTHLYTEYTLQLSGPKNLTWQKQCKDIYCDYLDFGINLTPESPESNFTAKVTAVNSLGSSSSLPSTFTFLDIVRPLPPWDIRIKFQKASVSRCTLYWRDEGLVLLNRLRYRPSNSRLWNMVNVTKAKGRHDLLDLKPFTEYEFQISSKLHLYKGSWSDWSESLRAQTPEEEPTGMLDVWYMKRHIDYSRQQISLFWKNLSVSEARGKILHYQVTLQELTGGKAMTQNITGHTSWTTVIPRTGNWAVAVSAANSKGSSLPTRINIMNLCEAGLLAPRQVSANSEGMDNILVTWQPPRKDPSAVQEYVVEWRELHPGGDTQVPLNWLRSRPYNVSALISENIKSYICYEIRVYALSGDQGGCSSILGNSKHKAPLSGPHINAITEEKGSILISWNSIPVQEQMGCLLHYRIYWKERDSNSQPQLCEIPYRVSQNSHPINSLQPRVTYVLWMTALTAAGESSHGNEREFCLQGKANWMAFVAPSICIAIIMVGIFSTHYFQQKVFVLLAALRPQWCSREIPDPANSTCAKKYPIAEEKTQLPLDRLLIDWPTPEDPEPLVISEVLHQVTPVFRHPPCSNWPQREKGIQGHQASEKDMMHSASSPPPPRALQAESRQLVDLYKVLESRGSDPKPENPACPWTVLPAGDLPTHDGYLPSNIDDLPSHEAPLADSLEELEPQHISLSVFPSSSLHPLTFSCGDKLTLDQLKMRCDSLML

Substance “recombinant human IL-12 (from UniProt P29459 23-219; P29460 23-328) (ligand)” gave a half maximal effective concentration (EC50) of p-STAT4 (Tyr693) in activated human T cells, AlphaLISA of 8.95 pM.
